Data published in patent US7244563B2, “Genes for plant fatty acid modifying enzymes associated with conjugated double bond formation” (E. I. du Pont de Nemours and Company, priority 2002, dated 2007).

B1: MomFad2: Momordica charantia fatty acid modifying enzyme associated with conjugated double bond formation, SEQ ID NO:4, cDNA SEQ ID NO:3 (protein, listed as Momordica charantia)
chain: MGGRGAIGVLRNGGGPKKKMGPGQGLGPGERITHARPPFSISQIKKAIPPHCFQRSLRRSFSYLLSDIALVSAFYYVADTYFHRLPHPLLHYLAWPVYWFCQGAVLTGMWGIAHDCGHHAFSDYQLVDDVVGFLIHSLVFVPYFSFKISHRRHHSNTSSVDRDEVFVPKPKAKMPWYFKYLTNPPARVFIIFITLTLGWPMYLTFNISGRYYGRFTSHFDPNSPIFSPKERVLVHISNAGLVATGYLLYRIAMAKGVGWLIRLYGVPLIVLNACVVLITALQHTHPSFPYYDSTEWDWLRGNLVTVDRDYGPIMNRVFHHITDTHVVHHLFPSMPHYNGKEATVAAKRILGEYYQFDGTPIWKAAWREFRECVYVEPDEDDGATSGSSSKGVFWYHNKL
B2: ImpFad2: Impatiens balsamina fatty acid modifying enzyme associated with conjugated double bond formation, SEQ ID NO:2, cDNA SEQ ID NO:1 (protein, listed as Impatiens balsamina)
chain: MGEVGPTNRTKTKLDKQQESENRVPHEPPPFTLSDLKKAIPPHCFERSLVKSFYHVIHDIIILSFFYYVAANYIPMLPQNLRYVAWPIYWAIQGCVQLGILVLGHECGHHAFSDYQWVDDMVGFVLHSSQLIPYFSWKHSHRRHHSNTASIERDEVYPPAYKNDLPWFAKYLRNPVGRFLMIFGALLFGWPSYLLFNANGRLYDRFASHYDPQSPIFNNRERLQVIASDVGLVFAYFVLYKIALAKGFVWLICVYGVPYVILNGLIVLITFLQHTHPNLPRYDLSEWDWLRGALSTVDRDYGMLNKVFHNVTDTHLVHHLFTTMPHYRAKEATEVIKPILGDYYKFDDTPFLKALWKDMGKCIYVESDVPGKNKGVYWYNNDI

Key:
[1] = system: soybean embryos; assay: Fatty acid composition of transgenic soybean somatic embryos (GC, GC-MS); type: cell-based; settings: for 16:0 / 18:0 / 18:1 / 18:2 / 18:3 / α-Parinaric / Eleostearic / Other: single soybean embryo; for 16:0 / 18:0 / 18:1 / 18:2 / 18:3 / α-Parinaric: % of total oil weight; for Eleostearic: includes cis-trans isomers of α-eleostearic acid (<1.0 wt %); for Other: primarily 20:0, 20:1, 22:0, and 22:1
Method: Gene fusions of the Impatiens balsamina or Momordica charantia cDNAs with the conglycinin promoter and phaseolin termination sequences in vector pKS67 were introduced into soybean embryos using the particle bombardment method of transformation. To induce somatic embryos, cotyledons, 3–5 mm in length dissected from surface sterilized, immature seeds of a soybean cultivar A2872 or JACK-910 were cultured in the light or dark at 26° C. on an appropriate agar medium for 6–10 weeks. Somatic embryos that produce secondary embryos were then excised and placed into a suitable liquid medium. After repeated selection for clusters of somatic embryos that multiplied as early, globular staged embryos, the suspensions were maintained as described below.
Soybean embryogenic suspension cultures were then transformed with the vector pKS67 containing the Impatiens or Momordica cDNA for fatty acid modifying enzymes associated with conjugated double synthesis by the method of particle gun bombardment (Klein et al. (1987) Nature (London) 327:70, U.S. Pat. No. 4,945,050). A DuPont Biolistic™ PDS1000/HE instrument (helium retrofit) was used for these transformations.
Five to seven days post bombardment, the liquid media was exchanged with fresh media, and eleven to twelve days post bombardment with fresh media containing […] hygromycin. This selective media was refreshed weekly. Seven to eight weeks post bombardment, green, transformed tissue was observed growing from untransformed, necrotic embryogenic clusters. Isolated green tissue was removed and inoculated into individual flasks to generate new, clonally propagated, transformed embryogenic suspension cultures. Each new line was treated as an independent transformation event. These suspensions were then subcultured and maintained as clusters of immature embryos.
Transgenic soybean embryos selected and maintained in this manner were analyzed for eleostearic acid and parinaric acid content using methods described in Example 4 (Table 1). Individual embryos expressing either the Impatiens or Momordica fatty acid modifying enzyme for conjugated double bond synthesis were homogenized in 1% (w/v) sodium methoxide in methanol. Fatty acid methyl esters resulting from this transesterification step were analyzed by both GC and GC-MS as described in Example 4. Methyl esters of eleostearic and parinaric acids were identified in transgenic soybean extracts by comparison of retention times and mass spectra with those of fatty acid methyl esters prepared from seeds of Impatiens balsamina and Momordica charantia. […] In soybean embryos expressing the Momordica enzyme, eleostearic acid was detected principally as α-eleostearic acid with lesser amounts of at least two other cis-trans isomers of eleostearic acid. […]

[2] = system: Tobacco (Nicotiana tabacum L. cv Xanthi) callus; assay: Fatty acid analysis (GC, GC-MS) of transgenic tobacco callus expressing the cDNA; type: cell-based; settings: CaMV 35S promoter
From the text: The cDNAs encoding fatty acid modifying enzymes associated with conjugated double bond synthesis in seeds of Impatiens balsamina and Momordica charantia were introduced into a plant expression vector designated pML63. Vector pML63 contains the uidA gene (which encodes the GUS enzyme) operably linked to the CaMV35S promoter and 3′ NOS sequence. pML63 is modified from pMH40 to produce a minimal 3′ NOS terminator fragment. pMH 40 is described in WO 98/16650 which was published on Apr. 23, 1998, the disclosure of which are hereby incorporated by reference. Using standard techniques familiar to those skilled in the art, the 770 base pair terminator sequence contained in pMH40 was replaced with a new 3′ NOS terminator sequence comprising nucleotides 1277 to 1556 of the sequence published by Depicker et al. (1982, J. Appl. Genet. 1:561–574). A chimeric gene was constructed comprising cDNAs encoding fatty acid modifying enzymes associated with conjugated double bond synthesis in seeds of Impatiens balsamina and Momordica charantia in sense orientation with respect to the cauliflower mosaic virus 35S promoter that is located 5′ to the cDNA fragment and termination sequences from the nopaline synthase (NOS) that are located 3′ to the cDNA fragment. The cDNAs for the Impatiens polypeptide was introduced in the NcoI and EcoRI sites of the vector pML63. The cDNA for the Momordica polypeptide was introduced into the NcoI and SmaI sites of the vector pML63. The NcoI and EcoRI sites flanking the Impatiens cDNA were generated by PCR amplification of the cDNAs using oligonucleotide primers that contained these restriction sites (SEQ ID NO:7 and SEQ ID NO:8, for the sense and antisense oligonucleotides, respectively). PCR amplification was conducted using the Pfu DNA polymerase. The NcoI site flanking the 5′ end of the Momordica cDNA was generated by PCR amplification in a similar manner (SEQ ID NO:9 and SEQ ID NO:10). The 3′ end of the PCR-generated Momordica cDNA was blunt-ended which allowed for cloning into the SmaI site of the vector pML63. The resulting fusions of the cauliflower mosaic virus 35S promoter with the cDNAs encoding fatty acid modifying enzymes associated with conjugated double bond synthesis in seeds of Impatiens balsamina or Momordica charantia and NOS termination sequences were released from the vector pML63 by digestion with XbaI. The resulting XbaI fragment was ligated into the corresponding site of the binary vector pZS199 The vector pZS199 contains the following elements: (1) the chimeric gene nopaline synthase/neomycin phosphotransferase as a selectable marker for transformed plant cells (Brevan et al. (1984) Nature 304:184–186), (2) the left and right borders of the T-DNA of the Ti plasmid (Brevan et al. (1984) Nucl. Acids Res. 12:8711–8720), (3) the E. coli lacZ-complementing segment (Vieria and Messing (1982) Gene 19:259–267) with unique restriction endonuclease sites for EcoRI, KpnI, BamHI, XbaI and SalI, (4) the bacterial replication origin from the Pseudomonas plasmid pVS1 (Itoh et al. (1984) Plasmid 11:206–220), and (5) the bacterial neomycin phosphotransferase gene from Tn5 (Berg et al. (1975) Proc. Natl. Acad. Sci. U.S.A. 72:3628–3632) as a selectable marker for transformed A. tumefaciens. The nopaline synthase promoter in the plant selectable marker was replaced by the 35S promoter (Odell et al. (1985) Nature, 313:810–813) by a standard restriction endonuclease digestion and ligation strategy.
Gene fusions of the Impatiens balsamina or Momordica charantia cDNAs with the cauliflower mosaic virus 35S promoter and the NOS termination sequences in vector pZS199 were introduced into Agrobacterium tumefaciens strain LBA4404. […]

[3] = soybean embryos, β-conglycinin promoter, highest amount

| Molecule | 16:0 ([1]; independent transgenic line 1) [Weight %] | 18:0 ([1]; independent transgenic line 1) [Weight %] | 18:1 ([1]; independent transgenic line 1) [Weight %] | 18:2 ([1]; independent transgenic line 1) [Weight %] | 18:3 ([1]; independent transgenic line 1) [Weight %] | α-Parinaric ([1]; independent transgenic line 1) [Weight %] | 16:0 ([1]; independent transgenic line 2) [Weight %] | 18:0 ([1]; independent transgenic line 2) [Weight %] | 18:1 ([1]; independent transgenic line 2) [Weight %] | 18:2 ([1]; independent transgenic line 2) [Weight %] | 18:3 ([1]; independent transgenic line 2) [Weight %] | α-Parinaric ([1]; independent transgenic line 2) [Weight %] | 16:0 ([1]; independent transgenic line 3) [Weight %] | 18:0 ([1]; independent transgenic line 3) [Weight %] | 18:1 ([1]; independent transgenic line 3) [Weight %] | 18:2 ([1]; independent transgenic line 3) [Weight %] | 18:3 ([1]; independent transgenic line 3) [Weight %] | α-Parinaric ([1]; independent transgenic line 3) [Weight %] | Eleostearic ([1]; transgenic line 1) [Weight %] | Other ([1]; transgenic line 1) [Weight %] | also measured |
| --- | --- | --- | --- | --- | --- | --- | --- | --- | --- | --- | --- | --- | --- | --- | --- | --- | --- | --- | --- | --- | --- |
| B1 | 6.9 | 2.4 | 43.1 | 24.1 | 3.1 | 1.0 | 7.9 | 2.1 | 36.8 | 29.4 | 5.1 | 1.0 | 8.4 | 2.3 | 41.9 | 25.1 | 6.1 | 1.8 | 17.4 | <2.0 | Eleostearic ([1]; transgenic line 2): 15.9 Weight %; Other ([1]; transgenic line 2): <2.0 Weight %; Eleostearic ([1]; transgenic line 3): 12.4 Weight %; Other ([1]; transgenic line 3): <2.0 Weight %; eleostearic acid of the total fatty acids [1, 3]: ≤ 16.5%; α-parinaric acid of the total fatty acids [1, 3]: ≤ 1.5%; eleostearic acid accumulated, relative to total fatty acid [2]: 1.7%; parinaric acid accumulated, relative to total fatty acid [2]: 1.1% |
| B2 | 13.3 | 4.2 | 20.8 | 46.3 | 9.2 | 2.2 | 13.2 | 2.5 | 12.2 | 53.8 | 12.5 | 2.0 | 13.5 | 3.1 | 11.1 | 53.0 | 17.3 | 1.0 | 3.0 | <1.0 | Eleostearic ([1]; transgenic line 2): 2.8 Weight %; Other ([1]; transgenic line 2): <1.0 Weight %; Eleostearic ([1]; transgenic line 3): 0.6 Weight %; Other ([1]; transgenic line 3): <1.0 Weight %; α-eleostearic acid of the total fatty acids [1, 3]: ≤ 3%; α-parinaric acid of the total fatty acids [1, 3]: ≤ 2%; eleostearic acid accumulated, relative to total fatty acid [2]: 3.4%; parinaric acid accumulated, relative to total fatty acid [2]: 1.7% |
